T1: AP2-G D1 (Plasmodium falciparum, UniProt Q8I5I9 2123-2245)
T1 sequence: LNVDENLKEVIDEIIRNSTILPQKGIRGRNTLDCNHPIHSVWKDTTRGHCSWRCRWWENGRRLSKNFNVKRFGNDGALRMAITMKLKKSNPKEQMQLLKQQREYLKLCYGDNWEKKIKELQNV

B1: XGTACX_site7465 (dsDNA)
DNA 1: TTTAATTCTTATATTTGTACAGATTCATAATTAAAT
DNA 2: ATTTAATTATGAATCTGTACAAATATAAGAATTAAA
B2: XGTACX_site8424 (dsDNA)
DNA 1: TATTTTGTCATAGAACGTACTTATAAATATTTTTTT
DNA 2: AAAAAAATATTTATAAGTACGTTCTATGACAAAATA
B3: XGTACX_site6203 (dsDNA)
DNA 1: AAAAAAAAAAAATAAAGTACTAAATAATACATTATA
DNA 2: TATAATGTATTATTTAGTACTTTATTTTTTTTTTTT
B4: XGTACX_site7391 (dsDNA)
DNA 1: TGTCAATCATATAAATGTACATTTTAAATGAGGTGT
DNA 2: ACACCTCATTTAAAATGTACATTTATATGATTGACA
B5: XGTACX_site3331 (dsDNA)
DNA 1: AAAAATTTTTTACATCGTACAGATATATATAATAAA
DNA 2: TTTATTATATATATCTGTACGATGTAAAAAATTTTT
B6: XGTACX_site1874 (dsDNA)
DNA 1: GGTATAAAGAAATTTTGTACATATTTCTCCCTTTAA
DNA 2: TTAAAGGGAGAAATATGTACAAAATTTCTTTATACC
B7: XGTACX_site1009 (dsDNA)
DNA 1: AATGTATTTATTTTTTGTACATATCGTGTGTGTATT
DNA 2: AATACACACACGATATGTACAAAAAATAAATACATT
B8: XGTACX_site4343 (dsDNA)
DNA 1: TTTATATACTATCAACGTACAAAAGTAATAAAAATA
DNA 2: TATTTTTATTACTTTTGTACGTTGATAGTATATAAA
B9: XGTACX_site8398 (dsDNA)
DNA 1: TAAAAAATAAAATAATGTACATATGAATTATATATT
DNA 2: AATATATAATTCATATGTACATTATTTTATTTTTTA
B10: XGTACX_site4080 (dsDNA)
DNA 1: AATACAATTGAAAATTGTACTTTGTTTTTTATAAAT
DNA 2: ATTTATAAAAAACAAAGTACAATTTTCAATTGTATT
B11: XGTACX_negctrl_site344 (dsDNA)
DNA 1: TACAAAAAAATAAATAATAAAAAAAAATATATATAA
DNA 2: TTATATATATTTTTTTTTATTATTTATTTTTTTGTA
B12: XGTACX_site1904 (dsDNA)
DNA 1: TTGACATATAAGATATGTACTAATACACACACATAT
DNA 2: ATATGTGTGTGTATTAGTACATATCTTATATGTCAA
B13: XGTACX_site2105 (dsDNA)
DNA 1: ATTAATTATTGTAATTGTACATTTTATATATATCCA
DNA 2: TGGATATATATAAAATGTACAATTACAATAATTAAT
B14: XGTACX_site972 (dsDNA)
DNA 1: GAAACAAAATTATTTTGTACATATGACTGTAGATAT
DNA 2: ATATCTACAGTCATATGTACAAAATAATTTTGTTTC
B15: XGTACX_site8520 (dsDNA)
DNA 1: ATATGAAAAAGAACTTGTACTAAAGTGGCATATTAT
DNA 2: ATAATATGCCACTTTAGTACAAGTTCTTTTTCATAT
B16: XGTACX_site1104 (dsDNA)
DNA 1: ACCATATAATTTTTTTGTACATAATGATTTTTTTTT
DNA 2: AAAAAAAAATCATTATGTACAAAAAAATTATATGGT
B17: XGTACX_negctrl_site442 (dsDNA)
DNA 1: TATTTTATTTCAAATCTTAATAATTGTAATTCTTCA
DNA 2: TGAAGAATTACAATTATTAAGATTTGAAATAAAATA
B18: XGTACX_site611 (dsDNA)
DNA 1: TAATTTCTTATGTATTGTACAAATAATATATGATAT
DNA 2: ATATCATATATTATTTGTACAATACATAAGAAATTA
B19: XGTACX_site2716 (dsDNA)
DNA 1: AAAACTTTCCATGTTTGTACATAAAATATAATAATT
DNA 2: AATTATTATATTTTATGTACAAACATGGAAAGTTTT
B20: XGTACX_site8441 (dsDNA)
DNA 1: AATAATATCTGAAAATGTACATTTTATTATAAACAT
DNA 2: ATGTTTATAATAAAATGTACATTTTCAGATATTATT
B21: XGTACX_negctrl_site412 (dsDNA)
DNA 1: AAAGGAGACAGAATAAGAATAAATATTATACATATA
DNA 2: TATATGTATAATATTTATTCTTATTCTGTCTCCTTT
B22: XGTACX_site8765 (dsDNA)
DNA 1: TTCCCTCCTCAAAATTGTACTAGAATAATAACATAA
DNA 2: TTATGTTATTATTCTAGTACAATTTTGAGGAGGGAA
B23: XGTACX_site5075 (dsDNA)
DNA 1: AAATGAAGATTTAAATGTACGAGAGGGTATACAAAT
DNA 2: ATTTGTATACCCTCTCGTACATTTAAATCTTCATTT
B24: XGTACX_site2156 (dsDNA)
DNA 1: AATATATATATATATAGTACATATTTTTATTCATTA
DNA 2: TAATGAATAAAAATATGTACTATATATATATATATT
B25: XGTACX_site7313 (dsDNA)
DNA 1: TATATACTTTATAAATGTACATATAATGTATTATTT
DNA 2: AAATAATACATTATATGTACATTTATAAAGTATATA
B26: XGTACX_site287 (dsDNA)
DNA 1: AACAAAGAAAATACATGTACAAAAAATATTAACGAA
DNA 2: TTCGTTAATATTTTTTGTACATGTATTTTCTTTGTT
B27: XGTACX_site5843 (dsDNA)
DNA 1: ATTTCAAAATATAGCTGTACAAAAAATGTAGATATA
DNA 2: TATATCTACATTTTTTGTACAGCTATATTTTGAAAT
B28: XGTACX_site4444 (dsDNA)
DNA 1: ATATAATATTGAGTTTGTACATATATATATGAAGAT
DNA 2: ATCTTCATATATATATGTACAAACTCAATATTATAT
B29: XGTACX_site8946 (dsDNA)
DNA 1: ATTAATCCAAATGAATGTACTTAATAATGTAATTAT
DNA 2: ATAATTACATTATTAAGTACATTCATTTGGATTAAT
B30: XGTACX_site1856 (dsDNA)
DNA 1: ATAAATTATAATAACTGTACAAAAATAATATATTCA
DNA 2: TGAATATATTATTTTTGTACAGTTATTATAATTTAT
B31: XGTACX_site3854 (dsDNA)
DNA 1: AACCATTCTTCTAATTGTACATTGAAAAATCATGAT
DNA 2: ATCATGATTTTTCAATGTACAATTAGAAGAATGGTT
B32: XGTACX_site5536 (dsDNA)
DNA 1: TAACACACTAAGAAAAGTACTGATTAATATAATTTT
DNA 2: AAAATTATATTAATCAGTACTTTTCTTAGTGTGTTA

What follows are binders tested against T1, AP2-G D1 (assay: gcPBM; about 25 ug protein; PBS, 1% milk, 0.2 mg/ml BSA, salmon testes DNA, 0.03% Triton X-100). Settings: tags: N-terminal GST (pGEX-4T-1), kept; label: surface-attached array probe.

Q: For B1, which binding signal is on record?
A: Its binding signal is 11.2 ln median PBM intensity, better of two orientations.

Q: For B2, which binding signal is on record?
A: The binding signal was 11.3 ln median PBM intensity, better of two orientations.

Q: For B3, which binding signal is on record?
A: The binding signal was 11.2 ln median PBM intensity, better of two orientations.

Q: B4 was tested. Which binding signal did it give?
A: Its binding signal is 11.2 ln median PBM intensity, better of two orientations.

Q: B5 was tested. Which binding signal did it give?
A: Its binding signal is 11.2 ln median PBM intensity, better of two orientations.

Q: With B6 as the binder, how does the binding signal read?
A: The binding signal was 11.1 ln median PBM intensity, better of two orientations.

Q: Which binding signal does the source give for B7 here?
A: Its binding signal is 11.2 ln median PBM intensity, better of two orientations.

Q: Which binding signal does the source give for B8 here?
A: Its binding signal is 11.3 ln median PBM intensity, better of two orientations.

Q: How did the binding signal turn out when B9 was run?
A: The binding signal was 11.2 ln median PBM intensity, better of two orientations.

Q: How did the binding signal turn out when B10 was run?
A: The binding signal was 11.3 ln median PBM intensity, better of two orientations.

Q: B11 was tested. Which binding signal did it give?
A: Its binding signal is 9.07 ln median PBM intensity, better of two orientations.

Q: How did the binding signal turn out when B12 was run?
A: Its binding signal is 11.2 ln median PBM intensity, better of two orientations.

Q: For B13, which binding signal is on record?
A: Its binding signal is 11.1 ln median PBM intensity, better of two orientations.

Q: B14 was tested. Which binding signal did it give?
A: The binding signal was 11.2 ln median PBM intensity, better of two orientations.

Q: B15 was tested. Which binding signal did it give?
A: Its binding signal is 11.3 ln median PBM intensity, better of two orientations.

Q: For B16, which binding signal is on record?
A: The binding signal was 11.1 ln median PBM intensity, better of two orientations.

Q: How did the binding signal turn out when B17 was run?
A: The binding signal was 8.99 ln median PBM intensity, better of two orientations.

Q: For B18, which binding signal is on record?
A: The binding signal was 11.3 ln median PBM intensity, better of two orientations.

Q: B19 was tested. Which binding signal did it give?
A: Its binding signal is 11.3 ln median PBM intensity, better of two orientations.

Q: With B20 as the binder, how does the binding signal read?
A: Its binding signal is 11.2 ln median PBM intensity, better of two orientations.

Q: B21 was tested. Which binding signal did it give?
A: Its binding signal is 9.08 ln median PBM intensity, better of two orientations.

Q: B22 was tested. Which binding signal did it give?
A: The binding signal was 11 ln median PBM intensity, better of two orientations.

Q: B23 was tested. Which binding signal did it give?
A: The binding signal was 11.2 ln median PBM intensity, better of two orientations.

Q: With B24 as the binder, how does the binding signal read?
A: Its binding signal is 11.1 ln median PBM intensity, better of two orientations.

Q: With B25 as the binder, how does the binding signal read?
A: Its binding signal is 11.3 ln median PBM intensity, better of two orientations.

Q: For B26, which binding signal is on record?
A: Its binding signal is 11.2 ln median PBM intensity, better of two orientations.

Q: With B27 as the binder, how does the binding signal read?
A: The binding signal was 11.2 ln median PBM intensity, better of two orientations.

Q: With B28 as the binder, how does the binding signal read?
A: The binding signal was 11.1 ln median PBM intensity, better of two orientations.

Q: With B29 as the binder, how does the binding signal read?
A: Its binding signal is 11.2 ln median PBM intensity, better of two orientations.

Q: For B30, which binding signal is on record?
A: The binding signal was 11.1 ln median PBM intensity, better of two orientations.

Q: With B31 as the binder, how does the binding signal read?
A: Its binding signal is 11.1 ln median PBM intensity, better of two orientations.

Q: B32 was tested. Which binding signal did it give?
A: Its binding signal is 11.2 ln median PBM intensity, better of two orientations.
